B1: Guanyl-specific ribonuclease Sa, P05798 (parent)
chain: DVSGTVCLSALPPEATDTLNLIASDGPFPYSQDGVVFQNRESVLPTQSYGYYHEYTVITPGARTRGTRRIITGEATQEDYYTGDHYATFSLIDQTC

Variants of: B1
Settings: Kitasatospora aureofaciens, pH 7, CD, MOPS 30 mM, structure 1RGG, whole UniProt chain shown

Variant | ddG of mutation (higher = less stable) (25 °C, GdnHCl) | denaturant m value (25 °C, GdnHCl) | denaturant midpoint (higher = more stable) (25 °C, GdnHCl) | unfolding free energy (25 °C, GdnHCl) | ddG of mutation (higher = less stable) (60 °C, Thermal) | heat capacity change of unfolding (60 °C, Thermal) | Tm (Thermal) | change of melting temperature, mutant - wild type (higher = more stable) (Thermal) | heat capacity change of unfolding (Thermal) | unfolding enthalpy (van 't Hoff) (Thermal) | ddG of mutation (higher = less stable) (25 °C, Urea) | denaturant m value (25 °C, Urea) | denaturant midpoint (higher = more stable) (25 °C, Urea) | unfolding free energy (25 °C, Urea)
DVSGTVCLSALPPEATDTLNLIASKGPFPYPQDGVVFQNREGVLPTQPYGYYHEYTVITPGARTRGTRRIITGKAPGEDYYTGDHYATFSLIDQTC | -3.9 kcal/mol | 2.52 kcal/mol/M | 4.44 M | 11.2 kcal/mol | -5.3 kcal/mol | 1.68 kcal/mol/K | 66.6 °C | 17.3 °C | 1.68 kcal/mol/K | 105 kcal/mol |  |  |  | 
DVSGTVCLSALPPEATDTLNLIASKGPFPYPQDGVVFQNREGVLPTQPYGYYHEYTVITPGARTRGTRRIITGKAPGEFAYTGDHYATFSLIDQTC | -0.1 kcal/mol | 2.69 kcal/mol/M | 2.74 M | 7.4 kcal/mol | 4.8 kcal/mol | 1.29 kcal/mol/K | 58 °C | -19.2 °C | 1.29 kcal/mol/K | 87 kcal/mol |  |  |  | 
DVSGTVCLSALPPEATDTLNLIASKGPFPYPQDGVVFQNREGVLPTQPYGYYHEYTVITPGARTRGTRRIITGKAPGEDYYTGDHYATFSLDDQTC | 5.1 kcal/mol | 2.67 kcal/mol/M | 0.83 M | 2.2 kcal/mol | 9.6 kcal/mol | 1.41 kcal/mol/K | 34 °C | -32.6 °C | 1.41 kcal/mol/K | 73 kcal/mol |  |  |  | 
DVSGTVCLSALPPEATDTLNLIASKGPFPYPQDGVVFQNREGVLPTQPYGYYHEYTVITPGARTRGTRRIITGKAPGEAYYTGDHYATFSLIDQTC | -4.9 kcal/mol | 2.4 kcal/mol/M | 5.05 M | 12.1 kcal/mol | -2.2 kcal/mol | 1.15 kcal/mol/K | 75.3 °C | 8.7 °C | 1.15 kcal/mol/K | 102 kcal/mol |  |  |  | 
DVSGTVCLSALPPEATDTLNLIASKGPFPYPQDGVVFQNREGVLPTQPYGYYHEYTVITPGARTRGTRRIITGKAPGEFYYTGDHYATFSLIDQTC | -6.3 kcal/mol | 2.51 kcal/mol/M | 5.4 M | 13.6 kcal/mol | -7.7 kcal/mol | 1.07 kcal/mol/K |  |  |  |  |  |  |  | 
DVSGTVCLSALPPEATDTLNLIASKGPFPYPQDGVVFQNREGVLPTQPYGYYHEYTVITPGARTRGTRRDITGKAPGEFYYTGDHYATFSLIDQTC |  |  |  |  | 9.5 kcal/mol | 1.08 kcal/mol/K | 41.5 °C | -35.6 °C | 1.08 kcal/mol/K | 78 kcal/mol |  |  |  | 
DVSGTVCLSALPPEATDTLNLIASKGPFPYPQDGVVFQNREGVLPTQPYGYYHEYTVITPGARTRGTRRIITGKAPGEFYYTGDHYATFSLADQTC | -1.9 kcal/mol | 2.78 kcal/mol/M | 3.22 M | 9.2 kcal/mol | 3.2 kcal/mol | 1.33 kcal/mol/K | 63.9 °C | -13.3 °C | 1.33 kcal/mol/K | 102 kcal/mol |  |  |  | 
DVSGTVCLSALPPEATDTLNLIASKGPFPYPQDGVVFQNREGVLPTQPYGYYHEYTVITPGARTRGTRRIITGKAPGEFYYTGDHYATFSLDDQTC | 2.2 kcal/mol | 2.73 kcal/mol/M | 2.01 M | 5.5 kcal/mol | 7.1 kcal/mol | 1.41 kcal/mol/K | 50.2 °C | -26.9 °C | 1.41 kcal/mol/K | 84 kcal/mol |  |  |  | 
DVSGTVCLSALPPEATDTLNLIASKGPFPYSQDGVVFQNRESVLPTQSYGYYHEYTVITPGARTRGTRRIITGKATQEDYYTGDHYATFSLIDQTC | 0.2 kcal/mol | 2.61 kcal/mol/M | 2.7 M | 7.1 kcal/mol | -0.8 kcal/mol |  | 51.5 °C | 2.2 °C |  | 92 kcal/mol | -0.8 kcal/mol | 1.02 kcal/mol/M | 6.51 M | 6.6 kcal/mol
